Test system: MS2 coat protein
Test: apparent KD of MS2 coat protein; designed switch direction (-1 OFF switch, 1 ON switch): 1; higher = weaker reporter binding
Procedure, shortened: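 SNAP-549-labelled MS2 coat protein was titrated, doubling from 0.7 or 1.5 nM to 3 µM, over designed RNA switches transcribed on Illumina chips by stalled E. coli RNA polymerase. Runs were done without input, with 200 uM small-molecule ligand, or with an oligonucleotide input. Apparent KD is the per-design median over clusters of curve-fitted normalised fluorescence.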

[1] = input ligand: microRNA oligo, concentration not stated
[2] = Eterna round: R95, input ligand: FMN 200 uM
[3] = Eterna round: R95, input ligand: microRNA oligo, concentration not stated
[4] = Eterna round: R95, input ligand: none

| Sequence | apparent KD of MS2 coat protein (input ligand: FMN 200 uM) | apparent KD of MS2 coat protein [1] | apparent KD of MS2 coat protein (input ligand: none) | apparent KD of MS2 coat protein [2] | apparent KD of MS2 coat protein [3] | apparent KD of MS2 coat protein [4] |
| --- | --- | --- | --- | --- | --- | --- |
| AAAAUGGUAUGUUACAUGAGGAUCACCCAUGUACCGUAAUCUGAGGAUAUGGUGAUGUAGAAGAAUCAGAAGGCAGACAUUUAA [AK SSNG3-V2-24.2] (Eterna round: R96, puzzle: Same State NG 3) | 19.2 nM | 26.7 nM | 36.1 nM |  |  |  |
| AGUCCAGCAUGAGCUGGACAAAAGCAUGUACAUGAGGAUCACCCAUGUUCAUGUACAAGCUUUUUGCUCGUCUUAAG [Mat - hsa-mir-208a - Mod of JL - 63] (puzzle: Sensor for hsa-mir-208a) |  |  |  | 568 nM | 18 nM | 802 nM |
| CCUUGUAGCGGAGGAUAUGGGCCUCACUCAGUCAAAGAGUGAGAAACAUGAGGAUCACCCAUGUCCCAGAAGGCCGCUGCUUGG [Estiveveza] (Eterna round: R96, puzzle: Same State NG 2) |  | 12.3 nM |  |  |  |  |
| AACAAUCUAUCUGAGGAUAUCAUGAAAUAAACAUGAGGAUCACCCAUGUGCAGGAAAACUGCAUAUUAGAAGGCAGAUAGAUUGA [salish99_ss2_r3_049] (puzzle: Same State 2) |  |  |  | 163 nM | 38.8 nM | 151 nM |
| AGCUAUUACGCAGGAUAUAGGGACAUGAGGAUCACCCAUGUGUACAUGAGUAAAUGUGAUCACGUCUAGAAGGGUGUACUAACA [SameState NG2 #37] (Eterna round: R96, puzzle: Same State NG 2) | 684 nM | 326 nM | 321 nM |  |  |  |
| AUUAGUGGUGGAGGAUAUGGGAAAGGAAGUGUACUAGAAGGCCACCGCCCUCUAGCACAUGAGGAUCACCCAUGUAUAGAGCCC [PowerStrip SSNG 1.14] (Eterna round: R96, puzzle: Same State NG 1) | 243 nM | 25.8 nM | 88.2 nM |  |  |  |
| GUUAUACAUGAGGAUCACCCAUGUCAAUGUAGUCGAGGAUAUGGGCAGCUAUGAGGCGUACUAGAAGGCGAGAAGU [Mat - Same State 1 - Mod of JL - D15] (puzzle: Same State 1) |  |  |  | 125 nM | 268 nM | 437 nM |
| UGUUGUUAAUUAGGAUAUGGGCACAUGAGGAUCACCCAUGUAUUGUCGAUGCUAUGUGGACACGUUUAGAAGGAAUGGCUAACA [SameState NG2 #91] (Eterna round: R96, puzzle: Same State NG 2) | 64.4 nM | 55.4 nM | 64.8 nM |  |  |  |
| CCGAUAAUUGGAGGAUAUGGAGCCUUAUUGGCUCCAGAAGGCUAUAAACAUGAGGAUCACCCAUGUCGGCGGUCUAAUGACCGA [Eli NG1ss - 50] (Eterna round: R96, puzzle: Same State NG 1) | 28 nM | 36.6 nM | 60.4 nM |  |  |  |
| UUACUCAUGUAAGGAUAUGCAGCCGAAACGGCUGCAGAAGGUACUAUAAUACAUGAGGAUCACCCAUGUCAAAAUAAUUUUUAC [Mat - Same State NG 1 - JL mod - D71] (Eterna round: R96, puzzle: Same State NG 1) | 44.9 nM | 21.7 nM | 27.5 nM |  |  |  |
| ACAUGAGACCUAGGAUAUCUUGUACCUACAUGUGACAUGAGGAUCACCCAUGUGGUAAGUAUGAGAGAGAAGGAGGAGAUAUGU [Equivalance 54 - Jieux - Same State NG 2] (Eterna round: R96, puzzle: Same State NG 2) | 15.4 nM | 12.3 nM | 17.6 nM |  |  |  |
| GCCGUAAUAACAUGAGGAUCACCCAUGUGCGCGAGAGUGGAUGAGGAUAUCGAUGGGUUUCCCGUCGAGAAGGCGUGGGUCGGC [JL SSNG3 3.98] (Eterna round: R96, puzzle: Same State NG 3) | 28 nM | 24.5 nM | 38.5 nM |  |  |  |
| GGUCCAGCCUGAGCUGGACAAAAGCAUGUACAUGAGGAUCACCCAUGUUCAUGUACAAGCUUUUUGCUCGUCUUAGC [salish99_208a_r3_071] (puzzle: Sensor for hsa-mir-208a) |  |  |  | 534 nM | 12.7 nM | 468 nM |
| AGAGGAGGAGCAGGAUAUUCGAAGAAGGACGUGGAAGAAGGGUUCAUGCGAUGACAUGAGGAUCACCCAUGUACCGCGCGAUGA [AK SSNG1-V2-13] (Eterna round: R96, puzzle: Same State NG 1) | 145 nM | 115 nM | 130 nM |  |  |  |
| AUUAUUAAUGCAGGAUAUGAUUAACAUGAGGAUCACCCAUGUGGUGUUGUGAGUAAGGAGAGAGAUCAGAAGGGCAUUUUUUUU [JMF's solution 5] (Eterna round: R96, puzzle: Same State NG 2) | 317 nM | 263 nM | 361 nM |  |  |  |
| AUCCGGAAGCGAGGAUAUGCAGAGGAUCACCCUGCAGAAGGCGCGAUCGCGAGGAUAUGCAGAGGAUCACCCUGCAGAAGGCGC [pwkr ssNG DX.31] (Eterna round: R96, puzzle: Same State NG 1) | 15.5 nM | 20.3 nM | 25.1 nM |  |  |  |

| Sequence | apparent KD of MS2 coat protein (input ligand: FMN 200 uM) | apparent KD of MS2 coat protein [1] | apparent KD of MS2 coat protein (input ligand: none) | apparent KD of MS2 coat protein [2] | apparent KD of MS2 coat protein [3] | apparent KD of MS2 coat protein [4] |
| --- | --- | --- | --- | --- | --- | --- |
| GUGGUCAGACAUGAGGAUCACCCAUGUGGAAUAAAUAACGGACAGGAUAUCGAAUAUAGGAUAUACGAGAAGGGUUGAUUGGUG (Eterna round: R96, puzzle: Same State NG 3) |  | 53.9 nM |  |  |  |  |
| AGAGGAGGAGCAGGAUAUUCGAAGAAGGACGUGGAAGAAGGGUUCAUGCGAUGACAUGAGGAUCACCCAUGUACCGCGCGUUGA [AK SSNG1-V2-14] (Eterna round: R96, puzzle: Same State NG 1) | 185 nM | 78.6 nM | 156 nM |  |  |  |
| CGUAGGUAGCUGGAGGAUAUUCGAGUGGUAACAUGAGGAUCACCCAUGUGGAGAGAGGUACAUGAGGAGAAGGCUAGCUGCCUGC [JL-ss2-3.14 JL mod] (puzzle: Same State 2) |  |  |  | 13.4 nM | 22 nM | 27.1 nM |
| GGUGCCAAUAAAGCCUACAUGAGGAUCACCCAUGUAUGUAGGUAGGAUAUCGUUUGCUUUGCAAACGAGAAGGGCCUAGGCACC [JL SSNG3 1.20] (Eterna round: R96, puzzle: Same State NG 3) | 22.5 nM | 40.2 nM | 48.3 nM |  |  |  |
| UUAAUUUACUGAGGAUAUCGUGUCGACUGAGGUGACAUGAGGAUCACCCAUGUGAGAAGAGGUAUCGAGAAGGCAGUAUUCAUA [JR_SSNG2_Sub021] (Eterna round: R96, puzzle: Same State NG 2) | 317 nM | 545 nM | 1120 nM |  |  |  |
| UACCGCGCAGAUGCGCAACAUGAGGAUCACCCAUGUGGCACACAGGAUAUCCUGAACAGCUAUUAGGAGAAGGGUGAAGGCCUC [Sotetelequ] (Eterna round: R96, puzzle: Same State NG 3) | 128 nM | 75.3 nM | 78.3 nM |  |  |  |
| UAACAGUACAAUUUAGAUCUACAUGAGGAUCACCCAUGUACUGAGGAUAUCAGCUCGUUUAGAGCUGAGAAGGCAGAAGAACUA [SSNG3/11-A3] (Eterna round: R96, puzzle: Same State NG 3) | 39.7 nM | 154 nM | 218 nM |  |  |  |
| CUUUUUAGUGCAGGAUAUGAUCAACAUGAGGAUCACCCAUGUGGCGUUGUGAGUAGGGAGAGUGAUCAGAAGGGCGUCUCCUCG [SS-NG2-LRO10] (Eterna round: R96, puzzle: Same State NG 2) | 40.7 nM | 55.7 nM | 39.2 nM |  |  |  |
| UGUUGUAUUACAGGAUAUCUAGUAUUUUUAUAUAGAGAAGGGUAUUCACAUGAGGAUCACCCAUGUAUAUACGAGGAAGUUGUG [JMF's solution 51] (Eterna round: R96, puzzle: Same State NG 1) |  | 23 nM |  |  |  |  |
| AGCUAUUAAUCAGGAUAUAGGGACAUGAGGAUCACCCAUGUAUACAUGAUGAAAUGUGGUCACGUCUAGAAGGGAUUACUAACA [SameState NG2 #41] (Eterna round: R96, puzzle: Same State NG 2) | 150 nM | 184 nM | 262 nM |  |  |  |
| CUACUACAUGAGGAUCACCCAUGUUAUAGUGAUGCAGGAUAUGUGUGACCAGAAGAUGAAACAGAAGGGCAAAGAA [JR_SS!_Sub001] (puzzle: Same State 1) |  |  |  | 31.4 nM | 33.1 nM | 30.1 nM |
| GAGGGACAGACCAACAUGAGGAUCACCCAUGUCCUCGCAGGUCAGGAUAUCAUGAGGAUCACCCAUGAGAAGGGACGGUGAACC (Eterna round: R96, puzzle: Same State NG 3) | 155 nM | 125 nM | 149 nM |  |  |  |
| GUUACAUGAGGAUCACCCAUGUAUGUGUGGGAGUAAGUGUCUUAGGAUAUCUAGUAUUUUAUUUAAGAGAAGGAAGAUUGUUGU [JMF's solution 59] (Eterna round: R96, puzzle: Same State NG 3) | 130 nM | 93.7 nM | 112 nM |  |  |  |
| GUAGCAUACCGAGGAUAUUCAUACAUGAGGAUCACCCAUGUUAUUAUAGGCCGAUUACGGCCUUGGGAGAAGGCGGAAUGCUAC [Xeonanis - 20 Mod28] (Eterna round: R96, puzzle: Same State NG 2) | 13.1 nM | 11.4 nM | 16.1 nM |  |  |  |
| GGUGGGUUGCUACCAACACAUGAGGAUCACCCAUGUUUUGGGAAGGAUAUGGUACCUAUUUGGUACCAGAAGGUCCCGUUGGUG [salish99_SSNG3_r04_706] (Eterna round: R96, puzzle: Same State NG 3) | 37.6 nM | 40.4 nM | 63.6 nM |  |  |  |

From the supplement of paper PMC9170038
